According to patent US20250327097A1, “ORGANISMS PRODUCING LESS CROTONIC ACID” (Global Bioenergies, priority 2021, published 2025):

tested on: 3-methylcrotonic acid; format: biochemical, Yersinia frederiksenii; set-up: key: “+” representing a low increase in activity; “++++” representing a high increase in activity

| Molecule | Activity relative to WT |
| --- | --- |
| I283T-N285P-N287T-Q290E-S322T-N388M-K394R-C430A-L432F-L434W-S436N-i443aL-dG462 (protein) MFLKSLREQINLLKRQGDLRIINRPVDSYLEAAAIIRRSTETKAPVPLMTNIKGYPGCSIVGGLAALSSNPEYPLSRVAMSLGLSTTASAQSIVQYLIDGLKKTPYLPVEIDSNSAPCKQNILRGEDASLAHFPIPQVHQHDGNRYVNTWGVFIVESPDGQWCNWSIQRVQYLNDRQMIALVFPSQHISDIWEEWVKIGKPMPYALVQGCEPIVPYIAGLPLLERNVNEAEYIGALYGKGIEVVKCETHDLRVPASSEVVIEGYFAITREGVEGPFGEFAGYTPPETSLEPILSITAISWQDDPIWPVVAEGKPVDEYHTCTGIGDAAAIQNVLLTANLPVSFVWVPLYSACHLMIVSINRHWRQTHPDLTSEQLTKKVGDVIHQTRMSIKLPRIVVLDDDVDPADTESLLWALATRIHPERKRYFYESAIFPWLNCYSEEERHNRKGKRVIIDALLPENHGAISSFDYAYPDDIKQRVLMHWETDFSHD | ++++ |
| I283T-N285P-N287T-Q290E-S322T-N388M-K394R-C430A-L432F-L434W-S436N-i443aT-dG462 (protein) MFLKSLREQINLLKRQGDLRIINRPVDSYLEAAAIIRRSTETKAPVPLMTNIKGYPGCSIVGGLAALSSNPEYPLSRVAMSLGLSTTASAQSIVQYLIDGLKKTPYLPVEIDSNSAPCKQNILRGEDASLAHFPIPQVHQHDGNRYVNTWGVFIVESPDGQWCNWSIQRVQYLNDRQMIALVFPSQHISDIWEEWVKIGKPMPYALVQGCEPIVPYIAGLPLLERNVNEAEYIGALYGKGIEVVKCETHDLRVPASSEVVIEGYFAITREGVEGPFGEFAGYTPPETSLEPILSITAISWQDDPIWPVVAEGKPVDEYHTCTGIGDAAAIQNVLLTANLPVSFVWVPLYSACHLMIVSINRHWRQTHPDLTSEQLTKKVGDVIHQTRMSIKLPRIVVLDDDVDPADTESLLWALATRIHPERKRYFYESAIFPWLNCYSEEERHNRKGKRVIIDALLPENHGAISSFDYAYPDDIKQRVLMHWETDFSHD | ++++ |
| I283T-N285P-N287T-Q290E-S322T-N388M-K394R-C430A-L432F-L434W-S436N-i444aH-dG462 (protein) MFLKSLREQINLLKRQGDLRIINRPVDSYLEAAAIIRRSTETKAPVPLMTNIKGYPGCSIVGGLAALSSNPEYPLSRVAMSLGLSTTASAQSIVQYLIDGLKKTPYLPVEIDSNSAPCKQNILRGEDASLAHFPIPQVHQHDGNRYVNTWGVFIVESPDGQWCNWSIQRVQYLNDRQMIALVFPSQHISDIWEEWVKIGKPMPYALVQGCEPIVPYIAGLPLLERNVNEAEYIGALYGKGIEVVKCETHDLRVPASSEVVIEGYFAITREGVEGPFGEFAGYTPPETSLEPILSITAISWQDDPIWPVVAEGKPVDEYHTCTGIGDAAAIQNVLLTANLPVSFVWVPLYSACHLMIVSINRHWRQTHPDLTSEQLTKKVGDVIHQTRMSIKLPRIVVLDDDVDPADTESLLWALATRIHPERKRYFYESAIFPWLNCYSEEERHNRKGKRVIIDALLPENHGAISSFDYAYPDDIKQRVLMHWETDFSHD | ++++ |
| V382A-N388M-K394R-C430N-L432F-L434W-S436N (protein) MFLKSLREQINLLKRQGDLRIINRPVDSYLEAAAIIRRSTETKAPVPLMTNIKGYPGCSIVGGLAALSSNPEYPLSRVAMSLGLSTTASAQSIVQYLIDGLKKTPYLPVEIDSNSAPCKQNILRGEDASLAHFPIPQVHQHDGNRYVNTWGVFIVESPDGQWCNWSIQRVQYLNDRQMIALVFPSQHISDIWEEWVKIGKPMPYALVQGCEPIVPYIAGLPLLERNVNEAEYIGALYGKGIEVVKCETHDLRVPASSEVVIEGYFAITREGVEGPFGEFAGYIPNENSLQPILSITAISWQDDPIWPVVAEGKPVDEYHTCSGIGDAAAIQNVLLTANLPVSFVWVPLYSACHLMIVSINRHWRQTHPDLTSEQLTKKVGDAIHQTRMSIKLPRIVVLDDDVDPADTESLLWALATRIHPERKRYFYESNIFPWLNCYSEEERHNRKGKRVIIDALLPENHGAISSFDYAYPDDIKQRVLMHWETDFSHD | + |
| I283T-N285P-N287T-Q290E-S322T-N388M-K394R-C430A-L432F-L434W-S436N-i444aP-dG462 (protein) MFLKSLREQINLLKRQGDLRIINRPVDSYLEAAAIIRRSTETKAPVPLMTNIKGYPGCSIVGGLAALSSNPEYPLSRVAMSLGLSTTASAQSIVQYLIDGLKKTPYLPVEIDSNSAPCKQNILRGEDASLAHFPIPQVHQHDGNRYVNTWGVFIVESPDGQWCNWSIQRVQYLNDRQMIALVFPSQHISDIWEEWVKIGKPMPYALVQGCEPIVPYIAGLPLLERNVNEAEYIGALYGKGIEVVKCETHDLRVPASSEVVIEGYFAITREGVEGPFGEFAGYTPPETSLEPILSITAISWQDDPIWPVVAEGKPVDEYHTCTGIGDAAAIQNVLLTANLPVSFVWVPLYSACHLMIVSINRHWRQTHPDLTSEQLTKKVGDVIHQTRMSIKLPRIVVLDDDVDPADTESLLWALATRIHPERKRYFYESAIFPWLNCYSEEERHNRKGKRVIIDALLPENHGAISSFDYAYPDDIKQRVLMHWETDFSHD | ++++ |
| I283T-N285P-N287T-Q290E-S322T-N388M-K394R-C430A-L432F-L434W-S436N-i444aV-dG462 (protein) MFLKSLREQINLLKRQGDLRIINRPVDSYLEAAAIIRRSTETKAPVPLMTNIKGYPGCSIVGGLAALSSNPEYPLSRVAMSLGLSTTASAQSIVQYLIDGLKKTPYLPVEIDSNSAPCKQNILRGEDASLAHFPIPQVHQHDGNRYVNTWGVFIVESPDGQWCNWSIQRVQYLNDRQMIALVFPSQHISDIWEEWVKIGKPMPYALVQGCEPIVPYIAGLPLLERNVNEAEYIGALYGKGIEVVKCETHDLRVPASSEVVIEGYFAITREGVEGPFGEFAGYTPPETSLEPILSITAISWQDDPIWPVVAEGKPVDEYHTCTGIGDAAAIQNVLLTANLPVSFVWVPLYSACHLMIVSINRHWRQTHPDLTSEQLTKKVGDVIHQTRMSIKLPRIVVLDDDVDPADTESLLWALATRIHPERKRYFYESAIFPWLNCYSEEERHNRKGKRVIIDALLPENHGAISSFDYAYPDDIKQRVLMHWETDFSHD | ++++ |
| I283T-N285P-N287T-Q290E-S322T-N388M-K394R-C430A-L432F-L434W-S436N-i444aR-dG462 (protein) MFLKSLREQINLLKRQGDLRIINRPVDSYLEAAAIIRRSTETKAPVPLMTNIKGYPGCSIVGGLAALSSNPEYPLSRVAMSLGLSTTASAQSIVQYLIDGLKKTPYLPVEIDSNSAPCKQNILRGEDASLAHFPIPQVHQHDGNRYVNTWGVFIVESPDGQWCNWSIQRVQYLNDRQMIALVFPSQHISDIWEEWVKIGKPMPYALVQGCEPIVPYIAGLPLLERNVNEAEYIGALYGKGIEVVKCETHDLRVPASSEVVIEGYFAITREGVEGPFGEFAGYTPPETSLEPILSITAISWQDDPIWPVVAEGKPVDEYHTCTGIGDAAAIQNVLLTANLPVSFVWVPLYSACHLMIVSINRHWRQTHPDLTSEQLTKKVGDVIHQTRMSIKLPRIVVLDDDVDPADTESLLWALATRIHPERKRYFYESAIFPWLNCYSEEERHNRKGKRVIIDALLPENHGAISSFDYAYPDDIKQRVLMHWETDFSHD | ++++ |
| I283T-N285P-N287T-Q290E-S322T-N388M-K394R-C430A-L432F-L434W-S436N-i444aN-dG462 (protein) MFLKSLREQINLLKRQGDLRIINRPVDSYLEAAAIIRRSTETKAPVPLMTNIKGYPGCSIVGGLAALSSNPEYPLSRVAMSLGLSTTASAQSIVQYLIDGLKKTPYLPVEIDSNSAPCKQNILRGEDASLAHFPIPQVHQHDGNRYVNTWGVFIVESPDGQWCNWSIQRVQYLNDRQMIALVFPSQHISDIWEEWVKIGKPMPYALVQGCEPIVPYIAGLPLLERNVNEAEYIGALYGKGIEVVKCETHDLRVPASSEVVIEGYFAITREGVEGPFGEFAGYTPPETSLEPILSITAISWQDDPIWPVVAEGKPVDEYHTCTGIGDAAAIQNVLLTANLPVSFVWVPLYSACHLMIVSINRHWRQTHPDLTSEQLTKKVGDVIHQTRMSIKLPRIVVLDDDVDPADTESLLWALATRIHPERKRYFYESAIFPWLNCYSEEERHNRKGKRVIIDALLPENHGAISSFDYAYPDDIKQRVLMHWETDFSHD | ++++ |
| I283T-N285P-N287T-Q290E-S322T-N388M-K394R-C430A-L432F-L434W-S436N-i444aG-dG462 (protein) MFLKSLREQINLLKRQGDLRIINRPVDSYLEAAAIIRRSTETKAPVPLMTNIKGYPGCSIVGGLAALSSNPEYPLSRVAMSLGLSTTASAQSIVQYLIDGLKKTPYLPVEIDSNSAPCKQNILRGEDASLAHFPIPQVHQHDGNRYVNTWGVFIVESPDGQWCNWSIQRVQYLNDRQMIALVFPSQHISDIWEEWVKIGKPMPYALVQGCEPIVPYIAGLPLLERNVNEAEYIGALYGKGIEVVKCETHDLRVPASSEVVIEGYFAITREGVEGPFGEFAGYTPPETSLEPILSITAISWQDDPIWPVVAEGKPVDEYHTCTGIGDAAAIQNVLLTANLPVSFVWVPLYSACHLMIVSINRHWRQTHPDLTSEQLTKKVGDVIHQTRMSIKLPRIVVLDDDVDPADTESLLWALATRIHPERKRYFYESAIFPWLNCYSEEERHNRKGKRVIIDALLPENHGAISSFDYAYPDDIKQRVLMHWETDFSHD | ++++ |
| I283T-N285P-N287T-Q290E-S322T-N388M-K394R-C430A-L432F-L434W-S436N-i444aT-dG462 (protein) MFLKSLREQINLLKRQGDLRIINRPVDSYLEAAAIIRRSTETKAPVPLMTNIKGYPGCSIVGGLAALSSNPEYPLSRVAMSLGLSTTASAQSIVQYLIDGLKKTPYLPVEIDSNSAPCKQNILRGEDASLAHFPIPQVHQHDGNRYVNTWGVFIVESPDGQWCNWSIQRVQYLNDRQMIALVFPSQHISDIWEEWVKIGKPMPYALVQGCEPIVPYIAGLPLLERNVNEAEYIGALYGKGIEVVKCETHDLRVPASSEVVIEGYFAITREGVEGPFGEFAGYTPPETSLEPILSITAISWQDDPIWPVVAEGKPVDEYHTCTGIGDAAAIQNVLLTANLPVSFVWVPLYSACHLMIVSINRHWRQTHPDLTSEQLTKKVGDVIHQTRMSIKLPRIVVLDDDVDPADTESLLWALATRIHPERKRYFYESAIFPWLNCYSEEERHNRKGKRVIIDALLPENHGAISSFDYAYPDDIKQRVLMHWETDFSHD | ++++ |
